Results on 19 molecules are retold here after patent publication US20210364527A1 (QUANTUM SI, published 2021).

Sequences and labels used below:
B4: FITC-labeled LA peptide LAKLDEESILKQK-FITC (peptide)
peptide: LAKLDEESILKQK-{FITC′}
B8: FITC-labeled FA peptide FAKLDEESILKQK-FITC (peptide)
peptide: FAKLDEESILKQK-{FITC′}
B10: FITC-labeled WA peptide WAKLDEESILKQK-FITC (peptide)
peptide: WAKLDEESILKQK-{FITC′}
B12: FITC-labeled YA peptide YAKLDEESILKQK-FITC (peptide)
peptide: YAKLDEESILKQK-{FITC′}
B16: FITC-labeled IA peptide IAKLDEESILKQK-FITC (peptide)
peptide: IAKLDEESILKQK-{FITC′}
B19: RA peptide RAKLDEESILKQK (XAKLDEESILKQK, X = R) (peptide)
peptide: RAKLDEESILKQK
notes: Biolayer interferometry single-point screen of UBR-box homologs

The target of experiment [1] is T1, LA peptide LAKLDEESILKQK (XAKLDEESILKQK, X = L).
T1 construct: Immobilized on the biolayer interferometry sensor
T1 peptide: LAKLDEESILKQK
Description: BLI heatmap.

The target of experiment [2] is T2, IA peptide IAKLDEESILKQK (XAKLDEESILKQK, X = I).
T2 construct: Immobilized on the biolayer interferometry sensor
T2 peptide: IAKLDEESILKQK
Description: BLI heatmap.

For experiment [3], the target named is T3, VA peptide VAKLDEESILKQK (XAKLDEESILKQK, X = V).
T3 construct: Immobilized on the biolayer interferometry sensor
T3 peptide: VAKLDEESILKQK
Description: BLI heatmap.

The target of experiment [4] is T4, F peptide FAKLDEESILKQK (XAKLDEESILKQK, X = F).
T4 construct: Immobilized on the biolayer interferometry sensor
T4 peptide: FAKLDEESILKQK
The experiment is described as follows: BLI heatmap.

Experiment [5] deals with T5, Y peptide YAKLDEESILKQK (XAKLDEESILKQK, X = Y).
T5 construct: Immobilized on the biolayer interferometry sensor
T5 peptide: YAKLDEESILKQK
The experiment is described as follows: BLI heatmap.

Experiment [6] deals with T6, W peptide WAKLDEESILKQK (XAKLDEESILKQK, X = W).
T6 construct: Immobilized on the biolayer interferometry sensor
T6 peptide: WAKLDEESILKQK
The experiment is described as follows: BLI heatmap.

The target of experiment [7] is T7, RA peptide (N-terminal arginine, penultimate alanine; rest of sequence not given).
T7 peptide: RAKLDEESILKQK-{FITC′}
Description: fluorescence polarization.

In experiment [8] the target is B19. The experiment is described as follows: BLI heatmap, single-point screen.
Experiment [9] deals with T8, ClpS from Thermosynochoccus elongatus (teClpS) (Thermosynechococcus elongatus, UniProt Q8DJY3 6-94).
T8 construct: Dye-labelled or streptavidin-complexed depending on the assay; also called Thermosynechococcus elongatus ClpS
T8 sequence: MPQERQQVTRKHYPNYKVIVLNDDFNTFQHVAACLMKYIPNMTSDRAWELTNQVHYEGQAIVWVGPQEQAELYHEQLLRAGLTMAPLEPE
The experiment is described as follows: fluorescence polarization, FITC-peptide with ClpS:streptavidin complex, 23 C.

In experiment [10] the target is T9, Kluyveromyces lactis UBR-box domain (PS528) (Kluyveromyces lactis, UniProt O60014 101-182).
T9 construct: UBR-streptavidin complex in fluorescence polarization
T9 sequence: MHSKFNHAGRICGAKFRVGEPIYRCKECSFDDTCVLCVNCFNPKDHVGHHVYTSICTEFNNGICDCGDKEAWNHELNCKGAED
The experiment is described as follows: biolayer interferometry single-point screen, 30 C.

Experiment [11] addresses T10, Mus musculus UBR-box domain (PS535) (Mus musculus, UniProt Q6WKZ8 98-168).
T10 sequence: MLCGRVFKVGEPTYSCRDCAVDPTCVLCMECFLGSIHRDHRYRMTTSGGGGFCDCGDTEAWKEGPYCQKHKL
The experiment is described as follows: biolayer interferometry single-point screen, 30 C.

Experiment [12] deals with T11, Saccharomyces cerevisiae UBR-box domain (PS538) (Saccharomyces cerevisiae, UniProt P19812 113-194).
T11 sequence: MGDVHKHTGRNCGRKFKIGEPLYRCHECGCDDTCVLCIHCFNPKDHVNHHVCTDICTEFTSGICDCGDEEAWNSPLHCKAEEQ
Description: biolayer interferometry single-point screen, 30 C.

Experiment [13] has as its target T8, ClpS from Thermosynochoccus elongatus …. Description: fluorescence polarization, single point.
Experiment [14] deals with B4. Description: fluorescence polarization, single point.
In experiment [15] the target is B16. Description: fluorescence polarization, single point.
The target in experiment [16] is B8. Description: fluorescence polarization, single point.
For experiment [17], the target named is B12. The experiment is described as follows: fluorescence polarization, single point.
The target of experiment [18] is B10. Description: fluorescence polarization, single point.

Primed or numbered codes have the meaning given here. Ends that are not written are not given here. FITC′ = not defined here

B1: PS381 (other)
chain: MVAFSKKWKKDELDKSTGKQKMLILHNDSVNSFDYVIKTLCEVCDHDTIQAEQCAFLTHFKGQCEIAVGEVADLVPLKNKLLNKNLIVSIH
For B1, the binding result in experiment [1], in experiment [2], in experiment [3], in [4], in experiment [5] and in experiment [6] was “no binding” in each case.

B2: PS691 (Bis-PS621, Linker 2) (designed binder)
chain: MHSKFSHAGRICGAKFKVGEPIYRCKECSFDDTCVLCVNCFNPKDHTGHHVYTTICTEFNNGICDCGDKEAWNHTLFCKAEEGGSAGSAAGSGEFMHSKFSHAGRICGAKFKVGEPIYRCKECSFDDTCVLCVNCFNPKDHTGHHVYTTICTEFNNGICDCGDKEAWNHTLFCKAEEGGGSHHHHHHHHHHGGGSGGGSGGGSGLNDFFEAQKIEWHEGGGSGGGSGGGSGLNDFFEAQKIEWHE
notes: Single polypeptide; the entry includes the C-terminal His/bis-biotinylation tag
B2: the Kd in [7] was 369 nM.

B3: Brachionus plicatilis UBR-box domain (PS505) (other)
chain: MVCGRVFKSGEPSYFCRECGTDPTCVLCSICFRHSKHRYHKYVMMTSGGGGYCDCGDPEAWKSDPCCELHMP
With B3, in experiment [8], the binding result was “binds”.
Turning to B4, the binding result in [9] is “binds”.

B5: PS694 (Bis-PS528, Linker 2) (designed binder)
chain: MHSKFNHAGRICGAKFRVGEPIYRCKECSFDDTCVLCVNCFNPKDHVGHHVYTSICTEFNNGICDCGDKEAWNHELNCKGAEDGSAGSAAGSGEFMHSKFNHAGRICGAKFRVGEPIYRCKECSFDDTCVLCVNCFNPKDHVGHHVYTSICTEFNNGICDCGDKEAWNHELNCKGAEDGGSHHHHHHHHHHGGGSGGGSGGGSGLNDFFEAQKIEWHEGGGSGGGSGGGSGLNDFFEAQKIEWHE
notes: as for B2
In experiment [7], B5 came in with a Kd of 353 nM.

B6: PS692 (Bis-PS621, Linker 3) (designed binder)
chain: MHSKFSHAGRICGAKFKVGEPIYRCKECSFDDTCVLCVNCFNPKDHTGHHVYTTICTEFNNGICDCGDKEAWNHTLFCKAEEGGSAGSAAGSGEFGSAGSAAGSGEFGSAGSAAGSGEFMHSKFSHAGRICGAKFKVGEPIYRCKECSFDDTCVLCVNCFNPKDHTGHHVYTTICTEFNNGICDCGDKEAWNHTLFCKAEEGGGSHHHHHHHHHHGGGSGGGSGGGSGLNDFFEAQKIEWHEGGGSGGGSGGGSGLNDFFEAQKIEWHE
notes: as for B2
Molecule B6 came in with a Kd in [7] of 478 nM.

B7: HA peptide HAKLDEESILKQK (XAKLDEESILKQK, X = H) (peptide)
peptide: HAKLDEESILKQK
notes: as for B19
As to B7, in experiment [10], the binding result is “binds”.
As to B8, in experiment [9], the binding result is recorded as “binds”.

B9: PS693 (Bis-PS528, Linker 1) (designed binder)
chain: MHSKFNHAGRICGAKFRVGEPIYRCKECSFDDTCVLCVNCFNPKDHVGHHVYTSICTEFNNGICDCGDKEAWNHELNCKGAEDGGGSGGGSGGGSGMHSKFNHAGRICGAKFRVGEPIYRCKECSFDDTCVLCVNCFNPKDHVGHHVYTSICTEFNNGICDCGDKEAWNHELNCKGAEDGGSHHHHHHHHHHGGGSGGGSGGGSGLNDFFEAQKIEWHEGGGSGGGSGGGSGLNDFFEAQKIEWHE
notes: as for B2
B9 returned a Kd in experiment [7] of 263 nM.
Turning to B10, in [9], the binding result is “binds”.

B11: PS690 (Bis-PS621, Linker 1) (designed binder)
chain: MHSKFSHAGRICGAKFKVGEPIYRCKECSFDDTCVLCVNCFNPKDHTGHHVYTTICTEFNNGICDCGDKEAWNHTLFCKAEEGGGGSGGGSGGGSGMHSKFSHAGRICGAKFKVGEPIYRCKECSFDDTCVLCVNCFNPKDHTGHHVYTTICTEFNNGICDCGDKEAWNHTLFCKAEEGGGSHHHHHHHHHHGGGSGGGSGGGSGLNDFFEAQKIEWHEGGGSGGGSGGGSGLNDFFEAQKIEWHE
notes: as for B2
B11 had a Kd in experiment [7] of 354 nM.
On to B12, for which the binding result in experiment [9] is “binds”.

B13: PS379 (other)
chain: MSTQEEVLEEVKTTTQKENEIVLYNDDYNTFDHVIETLIYACEHTPVQAEQCAILVHYKGKCTVKTGSFDELKPRCSKLLEEGLSAEIV
As to B13, the binding result in experiment [1], in experiment [2], in experiment [3], in experiment [4], in experiment [5] and in experiment [6] was “no binding” in each case.

B14: KA peptide KAKLDEESILKQK (XAKLDEESILKQK, X = K) (peptide)
peptide: KAKLDEESILKQK
notes: as for B19
Take B14: the binding result in experiment [11], in [10] and in [12] was “binds” throughout.

B15: PS695 (Bis-PS528, Linker 3) (designed binder)
chain: MHSKFNHAGRICGAKFRVGEPIYRCKECSFDDTCVLCVNCFNPKDHVGHHVYTSICTEFNNGICDCGDKEAWNHELNCKGAEDGSAGSAAGSGEFGSAGSAAGSGEFGSAGSAAGSGEFMHSKFNHAGRICGAKFRVGEPIYRCKECSFDDTCVLCVNCFNPKDHVGHHVYTSICTEFNNGICDCGDKEAWNHELNCKGAEDGGSHHHHHHHHHHGGGSGGGSGGGSGLNDFFEAQKIEWHEGGGSGGGSGGGSGLNDFFEAQKIEWHE
notes: as for B2
Molecule B15 registered a dissociation constant (Kd) in [7] of 317 nM.
On to B16, for which the binding result in [13] is “no binding”.

B17: FITC-labeled VA peptide VAKLDEESILKQK-FITC (peptide)
peptide: VAKLDEESILKQK-{FITC′}
On to B17, for which the binding result in [13] is “no binding”.

B18: PS370 (other)
chain: MFNSLGTVLDPKKSKAKYPEARVIVLDDNFNTFQHVANCLLAIIPRMCEQRAWDLTIKVDKAGSAEVWRGNLEQAELYHEQLFSKGLTMAPIEKT
Regarding B18, the binding result in experiment [2] is on record as “no binding”; in experiment [3], “no binding”; in [14], “binds”; in experiment [15], “no binding”; in [16] it was “binds”; in experiment [17], “binds”. The binding result in experiment [18] was “binds”.
With B19, the binding result in experiment [11], in experiment [10] and in [12] was “binds” each time.
